The text below walks through data of patent US20160137740A1.

The target in the assay is KO_CRD4+linker (human OX40 aa 147 to 214 replaced with the mouse counterparts) (human; mouse). Put plainly: flow cytometry, transfected 293F cells, column KO_CRD4+linker. (In general: Flow cytometry measures light scatter and fluorescence of single cells or particles in a stream.)
KO_CRD4+linker (human OX40 aa 147 to 214 replaced with the mouse counterparts) (human; mouse), sequence (chain, as listed by the source limits assumed, form in doubt): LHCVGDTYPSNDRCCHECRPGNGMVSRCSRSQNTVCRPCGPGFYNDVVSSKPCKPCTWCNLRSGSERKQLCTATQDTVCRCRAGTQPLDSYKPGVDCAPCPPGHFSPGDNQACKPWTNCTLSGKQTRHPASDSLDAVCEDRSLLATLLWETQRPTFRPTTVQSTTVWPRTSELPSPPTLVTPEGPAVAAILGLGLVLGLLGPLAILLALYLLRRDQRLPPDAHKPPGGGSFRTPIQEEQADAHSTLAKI

B1: 9B12 (antibody, mouse IgG1, V domains shown)
VH: EVQLQESGPSLVKPSQTLSLTCSVTGDSFTSGYWNWIRKFPGNRLEYMGYISYNGITYHNPSLKSRISITRDTSKNHYYLQLNSVTTEDTATYFCARYRYDYDGGHAMDYWGQGTLVTVSS
VL: DIQMTQTTSSLSASLGDRVTISCRASQDISNYLNWYQQKPDGTVKLLIYYTSKLHSGVPSRFSGSGSRTDYSLTITDLDQEDIATYFCQQGSALPWTFGQGTKVEIKR
As to B1, the percent of cells in the Alexa Fluor 488 gate (number printed over the gate) came out at 52.7.
